The test addresses SUN domain of human SUN1 (amino acid residues 616–812), tags removed (human). In words: SEC-MALS; co-expressed and co-purified samples at >1 mg/ml on Superdex 200 Increase 10/300 GL in 20 mM Tris pH 8.0, 150 mM KCl, 2 mM DTT. (Size exclusion chromatography separates by hydrodynamic size, large species first.)

KASH domain of human Nesprin-1 (KASH1, amino acid residues 8769–8797), tags removed, sequence (Q8NF91 8769-8797): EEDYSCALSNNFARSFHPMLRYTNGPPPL

With “KASH domain of human Nesprin-1 (KASH1, amino acid residues 8769–8797), tags removed (from UniProt Q8NF91 8769-8797) (domain or fragment)”, the stoichiometry N (binder:target ratio (6:6)) is 1.

The values are drawn from PMC7800377.
